B1: anti-CGRP receptor variant antibody 10, bivalent monoclonal antibody (antibody, human IgG1, lambda, N297G, V domains shown)
VH: QVQLVESGGGVVQPGRSLRLSCAASGFFFGSYGMHWVRQAPGKGLEWVAVISFAGEIEHYVDSVKGRFTISRDNSKNTLFLQMNSLRAEDTAVYYCARDRLNYYESSGYYHYKYYGMAVWGQGTTVTVSS
VL: QSVLTQPPSVSAAPGQKVTISCSGSSSNIGNNYVSWYQQLPGTAPKLLIYDNNKRPSGIPDRFSGSKSGTSATLGITGLQTGDEADYYCGTWDSRLSAVVFGGGTKLTVLG
B2: anti-CGRP receptor variant antibody 06, bivalent monoclonal antibody (antibody, human IgG1, lambda, N297G, V domains shown)
VH: B1 VH with F28T, G30S, Y32F, A54D, E56S, E58K, H59Y, Y60S
VL: B1 VL with S26Y, N31R, N32K, Y33S
B3: anti-CGRP receptor variant antibody 08, bivalent monoclonal antibody (antibody, human IgG1, lambda, N297G, V domains shown)
VH: B1 VH with F28T, G30S, Y32F, A54D, E56S, E58K, H59Y, Y60S
VL: B1 VL with S26Y, N31W, N32W, Y33P
B4: anti-CGRP receptor variant antibody 02, bivalent monoclonal antibody (antibody, human IgG1, lambda, N297G, V domains shown)
VH: B1 VH with F28T, G30S, Y32F, A54D, E56S, E58K, H59Y, Y60S
VL: B1 VL with S26R, N31I, N32K, Y33A
B5: anti-CGRP receptor variant antibody 09, bivalent monoclonal antibody (antibody, human IgG1, lambda, N297G, V domains shown)
VH: B1 VH with F28T, G30S, Y32F, E58D, H59Y
VL: B1 VL
B6: anti-CGRP receptor variant antibody 07, bivalent monoclonal antibody (antibody, human IgG1, lambda, N297G, V domains shown)
VH: B1 VH with F28Y, G30M, S31T, A54D, E56S, E58K, H59Y, Y60S
VL: B1 VL
B7: anti-CGRP receptor variant antibody 01, bivalent monoclonal antibody (antibody, human IgG1, lambda, N297G, V domains shown)
VH: B1 VH with F28T, G30S, Y32F, A54D, E56S, E58K, H59Y, Y60S
VL: B1 VL with S26Y, N31R, N32Y, Y33S
B8: iPS:454557 (5601) (bispecific antibody, human IgG1, kappa, lambda, N297G)
light 1: QSVLTQPPSVSAAPGQKVTISCSGSYSNIGRYSVSWYQQLPGTAPKLLIYDNNKRPSGIPDRFSGSKSGTSATLGITGLQTGDEADYYCGTWDSRLSAVVFGGGTKLTVLGQPKAAPSVTLFPPSSEELQANKATLVCLISDFYPGAVTVAWKADSSPVKAGVETTTPSKQSNNKYAAKSYLSLTPEQWKSHRSYSCQVTHEGSTVEKTVAPTECS
heavy 1: QVQLVESGGGVVQPGRSLRLSCAASGFTFSSFGMHWVRQAPGKGLEWVAVISFDGSIKYSVDSVKGRFTISRDNSKNTLFLQMNSLRAEDTAVYYCARDRLNYYESSGYYHYKYYGMAVWGQGTTVTVSSASTKGPSVFPLAPSSKSTSGGTAALGCLVKDYFPEPVTVSWNSGALTSGVHTFPAVLQSSGLYSLESVVTVPSSSLGTQTYICNVNHKPSNTKVDKKVEPKSCDKTHTCPPCPAPELLGGPSVFLFPPKPKDTLMISRTPEVTCVVVDVSHEDPEVKFNWYVDGVEVHNAKTKPCEEQYGSTYRCVSVLTVLHQDWLNGKEYKCKVSNKALPAPIEKTISKAKGQPREPQVYTLPPSRKEMTKNQVSLTCLVKGFYPSDIAVEWESNGQPENNYKTTPPVLKSDGSFFLYSKLTVDKSRWQQGNVFSCSVMHEALHNHYTQKSLSLSPGK
light 2: EIVLTQSPATLSLSPGERATLSCRASKSVGRSLHWYQQKPGQAPRLLIKYASQSLSGIPARFSGSGSGTDFTLTISSLEPEDFAVYYCHQSSRLPFTFGPGTKVDIKRTVAAPSVFIFPPSDEQLKSGTASVVCLLNNFYPREAKVQWKVDNALQSGNSQESVTEQDSKDSTYSLESTLTLSKADYEKHKVYACEVTHQGLSSPVTKSFNRGEC
heavy 2: not shown
B9: iPS:454585 (bispecific antibody, human IgG1, kappa, lambda, N297G)
light 1: B8 light 1
heavy 1: B8 heavy 1
light 2: B8 light 2 with R31W
heavy 2: not shown
B10: iPS:454731 (bispecific antibody, human IgG1, kappa, lambda, N297G)
light 1: B8 light 1
heavy 1: B8 heavy 1 with E370K
light 2: B8 light 2 with S28A, G30W, R31H, S32N, R93M
heavy 2: not shown
B11: iPS:454583 (bispecific antibody, human IgG1, kappa, lambda, N297G)
light 1: B8 light 1
heavy 1: B8 heavy 1
light 2: B8 light 2 with R31W
heavy 2: not shown
B12: iPS:454735 (bispecific antibody, human IgG1, kappa, lambda, N297G)
light 1: B8 light 1
heavy 1: B8 heavy 1 with E370K
light 2: B8 light 2 with R31Q
heavy 2: not shown
B13: iPS:454737 (bispecific antibody, human IgG1, kappa, lambda, N297G)
light 1: B8 light 1
heavy 1: B8 heavy 1 with E370K
light 2: B8 light 2 with R31Q
heavy 2: not shown
B14: iPS:454569 (bispecific antibody, human IgG1, kappa, lambda, N297G)
light 1: B8 light 1
heavy 1: B8 heavy 1
light 2: B8 light 2
heavy 2: not shown
B15: iPS:454565 (5606) (bispecific antibody, human IgG1, kappa, lambda, N297G)
light 1: B8 light 1
heavy 1: B8 heavy 1
light 2: B8 light 2
heavy 2: not shown
B16: iPS:454587 (bispecific antibody, human IgG1, kappa, lambda, N297G)
light 1: B8 light 1
heavy 1: B8 heavy 1
light 2: B8 light 2 with R31W
heavy 2: not shown
B17: iPS:454733 (bispecific antibody, human IgG1, kappa, lambda, N297G)
light 1: B8 light 1
heavy 1: B8 heavy 1 with E370K
light 2: B8 light 2 with K27R, R31L, S32A, R93F
heavy 2: not shown
B18: iPS:454739 (bispecific antibody, human IgG1, kappa, lambda, N297G)
light 1: B8 light 1
heavy 1: B8 heavy 1 with E370K
light 2: B8 light 2 with R31W
heavy 2: not shown
B19: iPS:454729 (bispecific antibody, human IgG1, kappa, lambda, N297G)
light 1: B8 light 1
heavy 1: B8 heavy 1 with E370K
light 2: B8 light 2 with R31Q
heavy 2: not shown

The results in this text go back to patent publication US20220363770A1 (Amgen, published 2022).

The IC50 is the concentration that inhibits the measured activity by half. Low readings indicate higher potency, high ones lower potency.

Changes are numbered by the printed parent chain.

In one experiment the target is human CGRP receptor (human CRLR / human RAMP1 heterodimer) (human, UniProt Q16602 23-461; O60894 27-148). Description: cell-based or functional assay.
Sequence of human CGRP receptor (human CRLR / human RAMP1 heterodimer) (Q16602 23-461 limits assumed, chain 1 of 2): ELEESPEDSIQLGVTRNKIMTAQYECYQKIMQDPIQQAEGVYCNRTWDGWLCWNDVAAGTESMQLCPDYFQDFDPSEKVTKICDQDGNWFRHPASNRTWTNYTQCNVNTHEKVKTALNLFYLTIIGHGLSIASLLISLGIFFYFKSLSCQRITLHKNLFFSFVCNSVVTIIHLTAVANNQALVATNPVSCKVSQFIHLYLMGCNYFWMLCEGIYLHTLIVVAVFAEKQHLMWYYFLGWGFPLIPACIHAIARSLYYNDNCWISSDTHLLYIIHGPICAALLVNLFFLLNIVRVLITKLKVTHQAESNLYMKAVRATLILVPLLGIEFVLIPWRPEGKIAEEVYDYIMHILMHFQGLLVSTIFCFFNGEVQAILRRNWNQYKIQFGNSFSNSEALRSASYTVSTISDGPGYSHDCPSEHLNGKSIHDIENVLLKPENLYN
Sequence of human CGRP receptor (human CRLR / human RAMP1 heterodimer) (O60894 27-148 limits assumed, chain 2 of 2): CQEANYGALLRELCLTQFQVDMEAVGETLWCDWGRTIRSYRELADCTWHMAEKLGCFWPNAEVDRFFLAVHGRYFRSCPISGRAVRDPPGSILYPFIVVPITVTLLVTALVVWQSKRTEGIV
Regarding B1, the “Average IC50 (nM), cell-based cAMP assay, SK-N-MC cells, 3 nM human α-CGRP” value (“Average IC50 (nM), cell-based cAMP assay” for short) turned out to be 0.56 nM; the “Fold-improvement over 4E4 Ab (IC50, cAMP assay)” value stood at 1 fold; the “Run 1 IC50 (nM), cell-based cAMP assay, SK-N-MC cells, 3 nM human α-CGRP” value (“Run 1 IC50 (nM), cell-based cAMP assay” for short) turned out to be 0.43 nM; the “Run 2 IC50 (nM), cell-based cAMP assay, SK-N-MC cells, 3 nM human α-CGRP” value (shortened to “Run 2 IC50 (nM), cell-based cAMP assay”) was determined as 0.68 nM.

With B2, the “Average IC50 (nM), cell-based cAMP assay” value worked out at 0.15 nM; the “Fold-improvement over 4E4 Ab (IC50, cAMP assay)” value was determined as 3.7 fold; the “Run 1 IC50 (nM), cell-based cAMP assay” value was 0.14 nM; the “Run 2 IC50 (nM), cell-based cAMP assay” value is 0.15 nM.

On to B3, for which the “Average IC50 (nM), cell-based cAMP assay” value was 0.3 nM; the “Fold-improvement over 4E4 Ab (IC50, cAMP assay)” value came to 1.8 fold; the “Run 1 IC50 (nM), cell-based cAMP assay” value was 0.28 nM; the “Run 2 IC50 (nM), cell-based cAMP assay” value came to 0.31 nM.

Regarding B4, the “Average IC50 (nM), cell-based cAMP assay” value was found to be 0.12 nM; the “Fold-improvement over 4E4 Ab (IC50, cAMP assay)” value was found to be 4.6 fold; the “Run 1 IC50 (nM), cell-based cAMP assay” value was found to be 0.1 nM; the “Run 2 IC50 (nM), cell-based cAMP assay” value was 0.13 nM.

As for B5, the “Average IC50 (nM), cell-based cAMP assay” value came out at 0.86 nM; the “Fold-improvement over 4E4 Ab (IC50, cAMP assay)” value turned out to be 0.6 fold; the “Run 1 IC50 (nM), cell-based cAMP assay” value came out at 0.73 nM; the “Run 2 IC50 (nM), cell-based cAMP assay” value is 1 nM.

For the molecule B6, the “Average IC50 (nM), cell-based cAMP assay” value was determined as 0.29 nM; the “Fold-improvement over 4E4 Ab (IC50, cAMP assay)” value is 1.9 fold; the “Run 1 IC50 (nM), cell-based cAMP assay” value was found to be 0.18 nM; the “Run 2 IC50 (nM), cell-based cAMP assay” value came to 0.39 nM.

Take B7: the “Average IC50 (nM), cell-based cAMP assay” value amounted to 0.14 nM; the “Fold-improvement over 4E4 Ab (IC50, cAMP assay)” value came out at 3.9 fold; the “Run 1 IC50 (nM), cell-based cAMP assay” value was found to be 0.13 nM; the “Run 2 IC50 (nM), cell-based cAMP assay” value came to 0.14 nM.

In another experiment the target is human CGRP receptor (human, UniProt Q16602 23-461; O60894 27-148). The experiment can be described thus: cell-based or functional assay.
Sequence of human CGRP receptor (Q16602 23-461 limits assumed, chain 1 of 2): as the sequence (Q16602 23-461 limits assumed, chain 1 of 2) above
Sequence of human CGRP receptor (O60894 27-148 limits assumed, chain 2 of 2): as the sequence (O60894 27-148 limits assumed, chain 2 of 2) above
For the molecule B8, the “Fold-improvement over 4E4 Ab” value is 1.5 fold and the “IC50” value turned out to be 0.39 nM.

Consider B9, for which the “Fold-improvement over 4E4 Ab” value amounted to 1.1 fold and the “IC50” value is 0.51 nM.

For B10, the “Fold-improvement over 4E4 Ab” value was determined as 1 fold and the “IC50” value came to 0.52 nM.

In the case of B11, the “Fold-improvement over 4E4 Ab” value is 1.1 fold and half-maximal inhibition (IC50) was put at 0.51 nM.

As to B12, the “Fold-improvement over 4E4 Ab” value was found to be 1 fold and half-maximal inhibition (IC50) was put at 0.52 nM.

For the molecule B13, the “Fold-improvement over 4E4 Ab” value stood at 0.9 fold and the “IC50” value was determined as 0.55 nM.

Consider B14, for which the “Fold-improvement over 4E4 Ab” value is 0.41 fold and the “IC50” value was 1.42 nM.

B15: the “Fold-improvement over 4E4 Ab” value was determined as 0.8 fold and half-maximal inhibition (IC50) was put at 0.66 nM.

For B16, the “Fold-improvement over 4E4 Ab” value turned out to be 0.9 fold and the “IC50” value is 0.58 nM.

Consider B17, for which the “Fold-improvement over 4E4 Ab” value was found to be 0.9 fold and the “IC50” value stood at 0.55 nM.

Consider B18, for which the “Fold-improvement over 4E4 Ab” value came out at 0.9 fold and inhibition was half-maximal at 0.57 nM (IC50).

Regarding B19, the “Fold-improvement over 4E4 Ab” value worked out at 1 fold and the “IC50” value came out at 0.53 nM.

The target of another experiment is T1, human PAC1 receptor (human, UniProt P41586 24-468).
T1 sequence: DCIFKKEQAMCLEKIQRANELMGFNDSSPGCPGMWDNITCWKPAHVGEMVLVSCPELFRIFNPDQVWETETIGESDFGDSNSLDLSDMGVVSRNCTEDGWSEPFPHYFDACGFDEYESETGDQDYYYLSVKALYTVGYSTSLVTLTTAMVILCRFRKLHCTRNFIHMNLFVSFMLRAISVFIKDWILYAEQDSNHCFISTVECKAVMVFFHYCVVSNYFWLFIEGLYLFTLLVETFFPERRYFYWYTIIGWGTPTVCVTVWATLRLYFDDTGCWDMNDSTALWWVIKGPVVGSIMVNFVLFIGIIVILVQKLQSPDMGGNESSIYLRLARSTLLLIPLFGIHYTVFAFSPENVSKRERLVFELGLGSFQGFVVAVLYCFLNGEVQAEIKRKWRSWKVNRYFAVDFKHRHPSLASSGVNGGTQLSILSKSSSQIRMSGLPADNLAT
The experiment can be described thus: cell-based or functional assay.
B8: the “Fold-improvement over 29G4v22 Ab” value stood at 6.7 fold and the concentration for half-maximal inhibition (IC50) came to 0.61 nM.

Regarding B9, the “Fold-improvement over 29G4v22 Ab” value is 2.1 fold and the “IC50” value is 2.65 nM.

With B10, the “Fold-improvement over 29G4v22 Ab” value was 1.8 fold and the half-inhibitory concentration (IC50) turned out to be 3.76 nM.

On to B11, for which the “Fold-improvement over 29G4v22 Ab” value amounted to 2.8 fold and the “IC50” value amounted to 2.48 nM.

With B12, the “Fold-improvement over 29G4v22 Ab” value came to 3.4 fold and the “IC50” value was 1.95 nM.

For B13, the “Fold-improvement over 29G4v22 Ab” value was 2.8 fold and half-maximal inhibition (IC50) was put at 2.38 nM.

Regarding B14, the “Fold-improvement over 29G4v22 Ab” value was found to be 3.8 fold and 1.27 nM corresponded to half-maximal inhibition (IC50).

In the case of B15, the “Fold-improvement over 29G4v22 Ab” value was found to be 5.9 fold and inhibition was half-maximal at 0.69 nM (IC50).

Turning to B16, the “Fold-improvement over 29G4v22 Ab” value worked out at 1.3 fold and the “IC50” value amounted to 4.36 nM.

For B17, the “Fold-improvement over 29G4v22 Ab” value is 3 fold and the “IC50” value amounted to 2.21 nM.

B18: the “Fold-improvement over 29G4v22 Ab” value was 3.5 fold and half-maximal inhibition (IC50) was put at 1.92 nM.

On to B19, for which the “Fold-improvement over 29G4v22 Ab” value came out at 6.9 fold and the “IC50” value was 0.97 nM.
